Here are results for 3 substances from article PMC5529513.

A word on the Kd: it is the free concentration of one partner at which half of the binding sites on the other are occupied at equilibrium, for simple one-to-one binding. A high value points to lower affinity. The stoichiometry N is a count of units in the complex or per binding partner.

Experiment [1] deals with ephrin-A5 Fc (UniProt P52803). Nature of the experiment: SPR. The settings on record: Fc fusion.
Experiment [2] addresses ephrin-A5 Fc (UniProt P52803). Nature of the experiment: ELISA. The settings on record: Fc fusion. On the technique in general: An ELISA detects its analyte on a solid surface through an enzyme-linked reagent.
The next experiment concerns the target ephrin-B3 Fc (UniProt Q15768). Nature of the experiment: ELISA. Conditions: Fc fusion.
UniProt Q15768, sequence (Q15768 28-226): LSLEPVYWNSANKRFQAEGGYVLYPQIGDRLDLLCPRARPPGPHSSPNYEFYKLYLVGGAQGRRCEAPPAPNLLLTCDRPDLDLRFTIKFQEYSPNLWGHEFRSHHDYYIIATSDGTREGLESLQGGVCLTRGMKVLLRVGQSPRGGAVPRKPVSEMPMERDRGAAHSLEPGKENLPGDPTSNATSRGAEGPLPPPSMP
In experiment [3] the target is ephrin-A5 Fc (UniProt P52803). Nature of the experiment: SPR; BIAcore T200; ephrin-A5 Fc amine-coupled on CM5 chip; EphA4 Fc proteins 500 to 50 nM in 10 mM HEPES pH 7.4, 150 mM NaCl, 3 mM EDTA, 0.05% Surfactant P20; 30 µl/min; bivalent analyte model and steady state affinity model. On the technique in general: In SPR one partner is held on a chip, and binding of the other changes the refractive index at the surface.

Experiment [4] deals with EphA4 Fc (wild type): human EphA4 ectodomain fused to IgG4 Fc (human) (UniProt P54764). Nature of the experiment: AUC; sedimentation velocity, 10 mM potassium phosphate pH 7.6, 20 °C, 40,000 rpm, c(s) fit with SEDFIT; oligomeric state of the Fc fusion.
Experiment [5] deals with triple mutant of EphA4 Fc (N235Q, N340Q, N408Q) (human) (UniProt P54764). The experiment is described as above.

Take “EphA4 Fc (wild type): human EphA4 ectodomain fused to IgG4 Fc (from UniProt P54764-1 20-547)”: the Kd worked out at 0.318 µM with ephrin-A5 Fc [1], 0.00051 µM with ephrin-A5 Fc [2] and 0.0239 µM with ephrin-B3 Fc.

In the experiment with ephrin-A5 Fc [3], “EphA4 Fc (wild type): human EphA4 ectodomain fused to IgG4 Fc (from UniProt P54764-1 20-547) (Fc fusion)” showed a ka1 (bivalent analyte model) of 56300 M⁻¹ s⁻¹, a ka2 (bivalent analyte model) of 0.000112 RU^-1s^-1, a kd1 (bivalent analyte model) of 0.0224 s⁻¹ and a kd2 (bivalent analyte model) of 0.00106 s⁻¹. Besides, the stoichiometry N in experiment [4] came to 2.

For “triple mutant of EphA4 Fc (N235Q, N340Q, N408Q) (from UniProt P54764-1 20-547) (Fc fusion)”, in the experiment with ephrin-A5 Fc [3], the ka1 (bivalent analyte model) came out at 115000 M⁻¹ s⁻¹, the ka2 (bivalent analyte model) was determined as 5.4e-05 RU^-1s^-1, the kd1 (bivalent analyte model) is 0.0184 s⁻¹ and the kd2 (bivalent analyte model) was found to be 2.66e-06 s⁻¹. The substance further came in with a stoichiometry N in experiment [5] of 2.
